pKd: −log10 of the molar value.
Legend:
Experiment in all cases: SPR; surface plasmon resonance; who was immobilised is not told in what was shown; mean +/- 95% CI, n=3
BAFFR-Fc = BAFFR-Fc (UniProt Q96RJ3)
BCMA-Fc = BCMA-Fc (UniProt Q02223)
[1] = target: TACI-Fc (extracellular domain of the BLyS receptor TACI fused to the Fc region of human IgG1) (UniProt O14836)
Chain of UniProt O14836 (O14836 1-165): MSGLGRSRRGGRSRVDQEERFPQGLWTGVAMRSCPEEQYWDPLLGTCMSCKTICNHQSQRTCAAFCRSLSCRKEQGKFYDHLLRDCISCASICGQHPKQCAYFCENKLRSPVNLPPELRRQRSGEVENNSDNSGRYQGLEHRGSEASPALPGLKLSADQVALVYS

Chain of UniProt Q02223 (Q02223 1-54): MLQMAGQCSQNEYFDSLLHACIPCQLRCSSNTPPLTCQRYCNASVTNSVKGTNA
Chain of UniProt Q96RJ3 (Q96RJ3 1-78): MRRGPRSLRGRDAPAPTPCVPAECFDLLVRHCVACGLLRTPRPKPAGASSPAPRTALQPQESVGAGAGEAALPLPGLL

## BLyS-gelonin fusion toxin
BAFFR-Fc
  pKd: 8.59
BCMA-Fc
  pKd: 8.21
[1]
  pKd: 9.10
